Drawing on publication PMC13542264, this text covers stoichiometry N, percent of gephyrin in the pellet fraction and fractional abundance of multimeric gephyrin for two substances.

Assay [1] has as its target His-gephyrin, rat gephyrin P1, wild type, full length (rat). In words: SEC; analytical Superose 6 increase 5/10, 4 °C, 50 mM Tris/HCl, 300 mM NaCl pH 7.4; protein reduced with 1 mM TCEP, also the oxidised peak collected and re-reduced.
The target in assay [2] is GCN4-GlyR, GCN4 receptor model for the glycine receptor β subunit. In words: co-sedimentation; sedimentation assay of in vitro phase separation: proteins mixed in 25 mM Tris pH 7.4, 150 mM NaCl, 10 min 25 °C, 17,000 x g 10 min 4 °C; pellet and supernatant on Coomassie gels; gephyrin oxidised or reduced.
For assay [3], the target named is gephyrin, endogenous in mouse brain (mouse (endogenous in brain)) (UniProt Q8BUV3). In words: non-reducing SDS-PAGE and Western blot; brain lysates of mice perfused with NEM-containing PBS; SDS sample buffer with 5 mM DTT or without reductant; shows only multimers that survive SDS.

In general, stoichiometry N refers to the number of molecules, sites or subunits per partner or assembly. Turning to “His-gephyrin, rat gephyrin P1, wild type, full length (natural protein)”, the stoichiometry N in assay [1] came out at 6. Also, the percent of gephyrin in the pellet fraction in assay [2] came out at 60%.

In the case of “gephyrin, endogenous in mouse brain (from UniProt Q8BUV3 1-769) (natural protein)”, the fractional abundance of multimeric gephyrin in assay [3] amounted to 20%.
